The source of these data is article PMC9122588, “Control of bacterial immune signaling by a WYL domain transcription factor”.

The target of this series is T1, Pa CapW (Pseudomonas aeruginosa PA17, UniProt P0DX74 1-299).
T1 sequence: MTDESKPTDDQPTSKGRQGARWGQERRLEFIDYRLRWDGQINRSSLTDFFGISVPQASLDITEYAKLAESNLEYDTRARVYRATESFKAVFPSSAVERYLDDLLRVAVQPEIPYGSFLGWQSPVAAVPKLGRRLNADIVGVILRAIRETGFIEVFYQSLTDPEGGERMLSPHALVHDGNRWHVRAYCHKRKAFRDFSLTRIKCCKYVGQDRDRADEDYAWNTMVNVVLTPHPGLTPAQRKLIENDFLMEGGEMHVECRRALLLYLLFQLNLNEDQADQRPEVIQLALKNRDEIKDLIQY
The experiment in a line: fluorescence polarization; 5 mM MgCl2; FP: 25 mM Tris pH 8.5, 50 mM NaCl, 5% glycerol, 5 mM MgCl2, 1 mM DTT, 0.01% NP-40 substitute, 50 nM DNA, 10 min, RT; EMSA: 50 mM Tris-HCl pH 8.5, 50 mM NaCl, 5. The settings on record: protein: recombinant; tags: N-terminal His6-TEV, cleaved; chain copies: 2; label: 5'-6-FAM on one strand; blunt.

B1: Probe #4 (dsDNA)
DNA 1: CTAAAAACTATGCGTATAGTAATAATACGC
DNA 2: GCGTATTATTACTATACGCATAGTTTTTAG
By Kd is commonly meant the constant that tells how readily two partners part at equilibrium. In the case of B1, the Kd was 1000 ± 100 nM.
